Substitutions are numbered along the chain they refer to. Names may count otherwise.
How the values were obtained:
[1] = Labeling kinetics of LgHT-LgBiT variants with TMR HaloTag ligand in E. coli lysates (fluorescence polarization); assay type: biochemical; conditions: 200 micromolar HaloTag[3-19] synthetic peptide, 10 nM TMR HaloTag ligand, versus M2F control
DualTag peptide [2] = experiment: BRET measurement of reporter stabilization by synthetic peptide; assay type: biochemical; conditions: room temperature, HaloTag NanoBRET 618 Ligand, versus LgHT-LgBiT alone
Description: FIG. 122A-C. […] After preincubation with peptide at 4° C., solutions were diluted 100-fold into buffer and incubated at room temperature. At time points, samples were added 1:1 to buffer either containing or lacking 10 nM final HaloTag® NanoBRET® 618 Ligand. For the reporter alone condition, samples were added 1:1 to a solution containing 10 nM final VS-HiBiT peptide with or without the 618 ligand in order to complement the LgBiT to create the BRET donor. After the last time point, furimazine substrate was added, followed by measuring the FIG. 122(A) luminescent donor signal using a 450 nm bandpass filter and FIG. 122(B) luminescent acceptor signal using a 600 nm longpass filter. The BRET ratio FIG. 122(C) is determined by dividing the acceptor signal by the donor signal for each sample.

DualTag peptide [3] = experiment: Dissociation kinetics after complementation with synthetic peptide (dilution, luminescence); conditions: 100 nM protein, 200 nM peptide, diluted to 1 pM, furimazine
Description: After preincubation with peptide, samples were diluted to 1 pM in either buffer alone or buffer 100 nM Tag peptide. At various time points, samples were transferred into luminescent substrate (Furimazine) to monitor dissociation of the complex.

[4] = Labeling kinetics with various HaloTag ligands (fluorescence polarization); assay type: biochemical; conditions: proteins at 10 nM, ligand at 2.5 nM, Tris-buffered saline+0.01% CHAPS
Description: (§1) FIG. 132. Labeling kinetics of HaloTag7 and HaloTag[22-297](M2F+D53G+K140E)-12×Gly/Ser-LgBiT-3×Gly/Ser-6×His with HaloTag ligand JF549. Fluorescence polarization was monitored over time to observe labeling kinetics of JF549 HaloTag ligand by HaloTag standard protein or HaloTag[22-297](M2F+D53G+K140E)-12×Gly/Ser-LgBiT-3×Gly/Ser-6×His. The experiment was completed in Tris-buffered saline+0.01% CHAPS with proteins at 10 nM and ligand at 2.5 nM.
as §1, with “133.” for “132.”, “JF503.” for “JF549.”, “JF503” for “JF549”
as §1, with “134.” for “132.”, “JFX554.” for “JF549.”, “JFX554” for “JF549”
as §1, with “135.” for “132.”, “Oregon Green.” for “JF549.”, “Oregon Green” for “JF549”
FIG. 136. Labeling kinetics of HaloTag7 and HaloTag[22-297](M2F+D53G+K140E)-12×Gly/Ser-LgBiT-3×Gly/Ser-6×His with a FAM HaloTag ligand. Fluorescence polarization was monitored over time to observe labeling kinetics of FAM HaloTag ligand by HaloTag standard protein or HaloTag[22-297](M2F+D53G+K140E)-12×Gly/Ser-LgBiT-3×Gly/Ser-6×His. The experiment was completed in Tris-buffered saline+0.01% CHAPS with proteins at 10 nM and ligand at 2.5 nM.

[5] = system: synthetic HaloTag[3-19] peptide; experiment: Stabilization of activity of LgHT-LgBiT variants by synthetic peptides in E. coli lysates; assay type: biochemical; conditions: 10 micromolar or more synthetic peptide, 10 minutes at temperature, 50 nM JF646 HaloTag ligand
[6] = 10 nM protein, 125 micromolar HaloTag[3-19] synthetic peptide, 10 minutes, 2.5 nM TMR HaloTag ligand

B1: M2F+D53G+V177E: reporter variant of FIG. 53 (protein)
chain: MFHYVDVGPRDGTPVLFLHGNPTSSYVWRNIIPHVAPTHRCIAPDLIGMGKSGKPDLGYFFDDHVRFMDAFIEALGLEEVVLVIHDWGSALGFHWAKRNPERVKGIAFMEFIRPIPTWDEWPEFARETFQAFRTTDVGRKLIIDQNVFIEGTLPMGVVRPLTEVEMDHYREPFLNPEDREPLWRFPNELPIAGEPANIVALVEEYMDWLHQSPVPKLLFWGTPGVLIPPAEAARLAKSLPNCKAVDIGPGLNLLQEDNPDLIGSEIARWLSTLEISGGSGGSGGGGSGGMVFTLEDFVGDWEQTAAYNLDQVLEQGGVSSLLQNLAVSVTPIQRIVRSGENALKIDIHVIIPYEGLSADQMAQIEEVFKVVYPVDDHHFKVILPYGTLVIDGVTPNMLNYFGRPYEGIAVFDGKKITVTGTLWNGNKIIDERLITPDGSMLFRVTINSGSGHHHHHH
- Labeling with TMR HaloTag ligand, response to synthetic peptide complementation [1]: faster ligand binding and labeling

B2: LgHT-LgBiT: tandem polypeptide reporter (Reporter) of FIG. 120, 122, 124 (protein)
chain: B1 chain with G53D, E177V
- LgBiT luminescence and LgHT ligand binding activity over time (Raw BRET ratio) (DualTag peptide [2]): remain intact for longer
- Dissociation from the DualTag peptide (DualTag peptide [3]): exceptionally slow dissociation kinetics

B3: M2F+D53G+K140E: triple mutant reporter, best candidate protein (protein)
chain: B1 chain with K140E, E177V
- Labeling with TMR HaloTag ligand, response to synthetic peptide complementation [1]: best dynamic range of all combinations tested
- Function with FAM HaloTag ligand [4]: functional
- Function with JF503 HaloTag ligand [4]: functional
- Function with JF549 HaloTag ligand [4]: functional
- Function with JFX554 HaloTag ligand [4]: functional
- Function with Oregon Green HaloTag ligand [4]: functional

B4: M2F+K140E: reporter variant of FIG. 54 and 58 (protein)
chain: B1 chain with G53D, K140E, E177V
- Labeling with TMR HaloTag ligand, response to synthetic peptide complementation [1]: better fold response to complementation with the peptide

B5: LgBiT: polypeptide component of a bioluminescent complex (β1-9-like polypeptide) (protein)
chain: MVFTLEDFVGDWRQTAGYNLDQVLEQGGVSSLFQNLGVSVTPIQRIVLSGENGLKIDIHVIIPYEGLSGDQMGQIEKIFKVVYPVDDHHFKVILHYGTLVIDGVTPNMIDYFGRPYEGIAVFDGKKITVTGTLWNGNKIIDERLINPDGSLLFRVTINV
- Dissociation from the DualTag peptide (DualTag peptide [3]): faster dissociation

B6: D53G+V177E: reporter variant of FIG. 50 (protein)
chain: MFHYVDVGPRDGTPVLFLHGNPTSSYVWRNIIPHVAPTHRCIAPDLIGMGKSGKPDLGYFFDDHVRFMDAFIEALGLEEVVLVIHDWGSALGFHWAKRNPERVKGIAFMEFIRPIPTWDEWPEFARETFQAFRTTDVGRKLIIDQNVFIEGTLPMGVVRPLTEVEMDHYREPFLNPEDREPLWRFPNELPIAGEPANIVALVEEYMDWLHQSPVPKLLFWGTPGVLIPPAEAARLAKSLPNCKAVDIGPGLNLLQEDNPDLIGSEIARWLSTLEISGGSGGSGGGGSGGMVFTLEDFVGDWEQTAAYNLDQVLEQGGVSSLLQNLAVSVTPIQRIVRSGENALKIDIHVIIPYEGLSADQMAQIEEVFKVVYPVDDHHFKVILPYGTLVIDGVTPNMLNYFGRPYEGIAVFDGKKITVTGTLWNGNKIIDERLITPDGSMLFRVTINS
- Optimal temperature of peptide stabilization versus the non-peptide condition [5]: ~35 °C

B7: M2F+D53S+V177E: more highly stabilized purified reporter variant of FIG. 60 (protein)
chain: B6 chain with G53S
- Loss of activity at 37° C. temperature challenge [6]: loses less than half of its activity

B8: M49F+S89A: reporter variant of FIG. 51 (protein)
chain: B6 chain with M49F, G53D, S89A, E177V
- Optimal temperature of peptide stabilization versus the non-peptide condition [5]: ~35 °C

B9: M49F+L57I: reporter variant of FIG. 52 (protein)
chain: B6 chain with M49F, G53D, L57I, E177V
- Optimal temperature of peptide stabilization versus the non-peptide condition [5]: ~40 °C
